The target in the test is dnm1l_human DNM1L (UniProt O00429).

This is an account of results in IntAct's records for PubMed 23813973.

Chain of dnm1l_human DNM1L (O00429 whole entry): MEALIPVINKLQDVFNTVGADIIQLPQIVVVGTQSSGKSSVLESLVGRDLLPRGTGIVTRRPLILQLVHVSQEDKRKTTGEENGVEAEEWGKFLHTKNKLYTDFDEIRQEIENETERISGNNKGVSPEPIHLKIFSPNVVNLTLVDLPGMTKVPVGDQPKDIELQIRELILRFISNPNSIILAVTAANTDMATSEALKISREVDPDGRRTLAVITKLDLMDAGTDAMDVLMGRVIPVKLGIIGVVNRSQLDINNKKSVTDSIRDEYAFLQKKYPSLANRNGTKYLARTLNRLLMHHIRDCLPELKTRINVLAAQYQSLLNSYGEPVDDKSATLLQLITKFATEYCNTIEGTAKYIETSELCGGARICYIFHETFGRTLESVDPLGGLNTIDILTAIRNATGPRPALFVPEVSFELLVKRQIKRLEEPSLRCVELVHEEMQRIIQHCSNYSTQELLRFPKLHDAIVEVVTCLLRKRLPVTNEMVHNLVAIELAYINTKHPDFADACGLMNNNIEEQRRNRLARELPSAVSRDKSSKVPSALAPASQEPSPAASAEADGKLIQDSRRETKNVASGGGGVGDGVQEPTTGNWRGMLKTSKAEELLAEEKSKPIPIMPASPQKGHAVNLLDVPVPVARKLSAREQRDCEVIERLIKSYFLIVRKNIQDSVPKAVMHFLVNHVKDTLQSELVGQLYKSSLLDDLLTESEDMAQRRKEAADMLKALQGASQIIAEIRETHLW

For the substance “Leucine-rich repeat serine/threonine-protein kinase 2 (Homo sapiens), Q5S007 K1906A;D1994A;D2017A”, the “effect of a mutation on the interaction” value is recorded as “decreasing interaction”.
